Source: article PMC4967826, “Combined structural, biochemical and cellular evidence demonstrates that both FGDF motifs in alphavirus nsP3 are required for efficient replication” (Open Biology, 2016)

Experiments:
[1] = biological target: nsP3-F3AC of virus SFV-F3AC (Semliki Forest virus)
[2] = biological target: GFP-nsP3-36-F3AN (Semliki Forest virus); test: MST
[3] = biological target: GFP-nsP3-36-F3ANC (Semliki Forest virus); test: MST
[4] = biological target: GFP-nsP3-36-F3AC (Semliki Forest virus); test: MST
[5] = biological target: GFP-nsP3-36 (GFP fused to the C-terminal 36 residues of SFV nsP3, C-terminal His tag) (Semliki Forest virus); test: MST
G3BP-1 F15A mutant = details: isothermal titration calorimetry; ref [28]; cited from earlier work
Description: The importance of the hydrophobic FGDF-binding site of G3BP-1 has been validated in previous binding studies using mutated versions of G3BP in which Phe-33 and Phe-15 were substituted to tryptophan and alanine, respectively. Both Phe-33 and Phe-15 are localized centrally within the hydrophobic binding site that coordinates the phenylalanine residues of the FGDF motif (figure 2b,c).

G3BP-1 (endogenous, BHK cells) (from UniProt A0A9J7JVX0 1-465) (natural protein)
G3BP-1 in the IP relative to SFV WT (densitometry) [1]: 49.5%

NTF2-like domain of human G3BP-1 (residues 1-139) (from UniProt Q13283 1-139) (domain or fragment)
Kd [2]: 5.8 µM
Kd [3]: 17 µM
binding constant of the high-affinity binding event [4]: 410 nM
binding constant of the low-affinity binding event [4]: 23 µM
binding constant of the high-affinity binding event [5]: 150 nM
binding constant of the low-affinity binding event [5]: 4.1 µM

DSGFSFGSK [nucleoporin (Nup)-derived peptide]
binding affinity to F15A mutant of G3BP-1 (G3BP-1 F15A mutant): five times lower binding affinity
